The text below walks through data of publication PMC8216470.

What all share (assay): MST
Conditions in all cases: MST with Cy5-labelled tRNA; buffer, salt, pH and temperature not in the material (protein storage: 10 mM Tris-HCl pH 8.0, 200 mM NaCl, 0.5 mM TCEP)

The test system of series [1] is ADAT2;ADAT3-Δloop (Mus musculus;Mus musculus).
The test system of series [2] is ADAT2;ADAT3 WT (Mus musculus;Mus musculus).
In another series the test system is TadA (Escherichia coli).
Series [3] deals with ADAT2;ADAT3-V128L (Mus musculus;Mus musculus).
The test system of series [4] is ADAT2;ADAT3-ΔN (Mus musculus;Mus musculus).
For series [5], the system named is ADAT2;ADAT3-V128I (Mus musculus;Mus musculus).
Series [6] deals with ADAT2;ADAT3-V128M (Mus musculus;Mus musculus).

With tRNAArg(ACG), the Kd in series [1] came out at 6.5 µM; in series [2], 3.7 µM; in the series on TadA (Escherichia coli), 6.6 µM.

As for tRNAVal(AAC), the Kd in series [1] is 6.7 µM; in series [3], 4.2 µM; in series [2], 3.5 µM; in series [4] it was 44.5 µM; in series [5] it was 3.3 µM; in series [6], 2.5 µM.

On to tRNAAla(AGC), for which the Kd in series [1] turned out to be 6.7 µM; in series [2], 8 µM.

Regarding tRNAGly(CCC), the Kd in series [2] stood at 3 µM; in series [4], 35.8 µM.

By Kd is commonly meant a measure of binding affinity in units of concentration.
